# Measurements from PMC5986058.
# B1: LTAaj (L-threonine aldolase from Aeromonas jandaei; L-allo-threonine aldolase) (Aeromonas jandaei) (protein)
# chain: MRYIDLRSDTVTQPTDAMRQCMLHAEVGDDVYGEDPGVNALEAYGADLLGKEAALFVPSGTMSNLLAVMSHCQRGEGAVLGSAAHIYRYEAQGSAVLGSVALQPVPMQADGSLALADVRAAIAPDDVHFTPTRLVCLENTHNGKVLPLPYLREMRELVDEHGLQLHLDGARLFNAVVASGHTVRELVAPFDSVSICLSKGLGAPVGSLLVGSHAFIARARRLRKMVGGGMRQAGILAQAGLFALQQHVVRLADDHRRARQLAEGLAALPGIRLDLAQVQTNMVFLQLTSGESAPLLAFMKARGILFSGYGELRLVTHLQIHDDDIEEVIDAFTEYLGA
# notes: C-terminal His-tag, expressed in E. coli BL21(DE3), Ni-NTA purified, homotetramer, PLP-dependent
# Substrate: C[C@H](O)[C@H](N)C(=O)O
# Assay: purified protein
# Assay type: biochemical, Aeromonas jandaei
# Conditions: 50 mM NaPi pH 8, 25 °C, 50 μM PLP
protein,measurement,value
B1,Km,500 µM
same,kcat,8.67 s⁻¹
same,kcat/Km,17000 M⁻¹ s⁻¹
